# According to patent US20260274910A1, “SINGLE FUSION PROTEIN AND PHARMACEUTICAL COMPOSITION” (MEDI&GENE INC., priority 2023, published 2026):
# B1: Shortened substance (8-35) (peptide)
# peptide: VDRGAGSIREAGGAFGKREQAEEERYFR
# B2: Shortened substance (8-35) amino acid Ala substituted (17) (peptide)
# peptide: VDRGAGSIRAAGGAFGKREQAEEERYFR
# B3: Shortened substance (8-35) amino acid Ala substituted (19) (peptide)
# peptide: VDRGAGSIREAAGAFGKREQAEEERYFR
# B4: Shortened substance (8-35) amino acid Ala substituted (20) (peptide)
# peptide: VDRGAGSIREAGAAFGKREQAEEERYFR
# B5: Shortened substance (8-35) amino acid Ala substituted (22) (peptide)
# peptide: VDRGAGSIREAGGAAGKREQAEEERYFR
# B6: Shortened substance (8-35) amino acid Ala substituted (23) (peptide)
# peptide: VDRGAGSIREAGGAFAKREQAEEERYFR
# B7: Shortened substance (8-35) amino acid Ala substituted (24) (peptide)
# peptide: VDRGAGSIREAGGAFGAREQAEEERYFR
# B8: Shortened substance (8-35) amino acid Ala substituted (25) (peptide)
# peptide: VDRGAGSIREAGGAFGKAEQAEEERYFR
# B9: Shortened substance (8-35) amino acid Ala substituted (26) (peptide)
# peptide: VDRGAGSIREAGGAFGKRAQAEEERYFR
# B10: Shortened substance (8-35) amino acid Ala substituted (27) (peptide)
# peptide: VDRGAGSIREAGGAFGKREAAEEERYFR
# B11: Shortened substance (8-35) amino acid Ala substituted (29) (peptide)
# peptide: VDRGAGSIREAGGAFGKREQAAEERYFR
# B12: Shortened substance (8-35) amino acid Ala substituted (8) (peptide)
# peptide: ADRGAGSIREAGGAFGKREQAEEERYFR
# B13: Shortened substance (8-35) amino acid Ala substituted (30) (peptide)
# peptide: VDRGAGSIREAGGAFGKREQAEAERYFR
# B14: Shortened substance (8-35) amino acid Ala substituted (31) (peptide)
# peptide: VDRGAGSIREAGGAFGKREQAEEARYFR
# B15: Shortened substance (8-35) amino acid Ala substituted (32) (peptide)
# peptide: VDRGAGSIREAGGAFGKREQAEEEAYFR
# B16: Shortened substance (8-35) amino acid Ala substituted (33) (peptide)
# peptide: VDRGAGSIREAGGAFGKREQAEEERAFR
# B17: Shortened substance (8-35) amino acid Ala substituted (34) (peptide)
# peptide: VDRGAGSIREAGGAFGKREQAEEERYAR
# B18: Shortened substance (8-35) amino acid Ala substituted (35) (peptide)
# peptide: VDRGAGSIREAGGAFGKREQAEEERYFA
# B19: Shortened substance (8-35) amino acid Ala substituted (9) (peptide)
# peptide: VARGAGSIREAGGAFGKREQAEEERYFR
# B20: Shortened substance (8-35) amino acid Ala substituted (10) (peptide)
# peptide: VDAGAGSIREAGGAFGKREQAEEERYFR
# B21: Shortened substance (8-35) amino acid Ala substituted (11) (peptide)
# peptide: VDRAAGSIREAGGAFGKREQAEEERYFR
# B22: Shortened substance (8-35) amino acid Ala substituted (13) (peptide)
# peptide: VDRGAASIREAGGAFGKREQAEEERYFR
# B23: Shortened substance (8-35) amino acid Ala substituted (14) (peptide)
# peptide: VDRGAGAIREAGGAFGKREQAEEERYFR
# B24: Shortened substance (8-35) amino acid Ala substituted (15) (peptide)
# peptide: VDRGAGSAREAGGAFGKREQAEEERYFR
# B25: Shortened substance (8-35) amino acid Ala substituted (16) (peptide)
# peptide: VDRGAGSIAEAGGAFGKREQAEEERYFR
# Molecular target: ATP5B protein
# Experiment: SPR, ATP5B amine-coupled to CM5 chip, peptide in flow at 50 ul/min; binding units relative to SEQ ID NO: 12
# ATP5B protein, sequence (P06576 48-529): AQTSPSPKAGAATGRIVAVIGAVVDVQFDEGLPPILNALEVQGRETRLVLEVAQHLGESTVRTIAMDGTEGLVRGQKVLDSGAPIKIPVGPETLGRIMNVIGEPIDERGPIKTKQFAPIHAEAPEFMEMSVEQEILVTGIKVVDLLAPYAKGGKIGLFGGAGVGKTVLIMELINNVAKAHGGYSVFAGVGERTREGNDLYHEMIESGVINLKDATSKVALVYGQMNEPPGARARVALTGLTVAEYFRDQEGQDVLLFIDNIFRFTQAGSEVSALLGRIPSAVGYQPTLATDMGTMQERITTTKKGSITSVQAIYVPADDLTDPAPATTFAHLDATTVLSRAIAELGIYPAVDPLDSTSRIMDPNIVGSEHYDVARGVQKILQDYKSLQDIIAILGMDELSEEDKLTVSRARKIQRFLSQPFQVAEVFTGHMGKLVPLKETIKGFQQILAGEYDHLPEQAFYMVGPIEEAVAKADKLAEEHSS
row,Binder,Binding (%)
1,B1,100%
2,B2,169%
3,B3,89.6%
4,B4,68%
5,B5,94%
6,B6,102%
7,B7,100%
8,B8,85.2%
9,B9,94.1%
10,B10,89.5%
11,B11,96.7%
12,B12,101%
13,B13,94%
14,B14,158%
15,B15,426%
16,B16,146%
17,B17,92.1%
18,B18,110%
19,B19,91.6%
20,B20,104%
21,B21,100%
22,B22,98.5%
23,B23,98.8%
24,B24,99.3%
25,B25,97%
